The chains are these.
B1: ICP27^103–110 (peptide)
peptide: SVWSRLGA
notes: HSV-1 ICP27, residues 103-110; the dash in the printed line is an alignment gap; also called WT ICP27^103–110 peptide; source: synthetic peptide (Peptide Protein Research Ltd)
B2: HVS ORF57^8–120 (recombinant, for NMR) (domain or fragment)
chain: GISSDDDFDSSDSSSDEEESDTSPQIMKSDVTMASPPSTPEPSPDVSASTSNLKRERQRSPITWEHQSPLSRVYRSPSPMRFGKRPRISSNSTSRSCKTSWADRVREAAAQRR
B3: ICP27^103–112 (peptide)
peptide: SVWSRLGARR
notes: HSV-1 ICP27, residues 103-112; the dash in the printed line is an alignment gap; also called WT ICP27^103–112 peptide; source: synthetic peptide (Peptide Protein Research Ltd)
B4: REF^54–155 (recombinant, for NMR) (domain or fragment)
chain: not shown
notes: 15N- or 13C/15N-labelled or unlabelled, by experiment; also called Δ53N
B5: ICP27^103–138 (peptide)
chain: GPLGSVWSRLGARRPSCSPEQHGGKVARLQPPPTKAQPAR
notes: remainder of the PreScission protease cleavage site; HSV-1 ICP27, residues 103-138; also called WT-ICP27^103–138; ICP27^103–138 WT peptide; source: expressed as GST-fusion from pGEX-6P-1, cleaved by PreScission protease on GSH resin, purified (Sephacryl S-100 HR); not shown: GST, N-terminal, cleaved
B6: ICP27^103–138 S114E (peptide)
chain: B5 chain with S16E
notes: remainder of the PreScission protease cleavage site; HSV-1 ICP27, residues 103-138 with S114E (mimic of phosphoserine 114); source: expressed as GST-fusion from pGEX-6P-1, cleaved by PreScission protease on GSH resin, purified (Sephacryl S-100 HR); not shown: GST, N-terminal, cleaved
B7: ICP27^1–138 (recombinant, for NMR) (domain or fragment)
chain: MATDIDMLIDLGLDLSDSDLDEDPPEPAESRRDDLESDSSGECSSSDEDMEDPHGEDGPEPILDAARPAVRPSRPEDPGVPSTQTPRPTERQGPNDPQPAPHSVWSRLGARRPSCSPEQHGGKVARLQPPPTKAQPAR
notes: HSV-1 ICP27, residues 1-138
B8: HVS ORF57^105–115 (peptide)
peptide: KTSWADRVREA
notes: also called WT HVS-ORF57^105–115; WT-ORF57^105–115; source: synthetic peptide (Peptide Protein Research Ltd)
B9: HVS ORF57^103–120 (peptide)
peptide: SCKTSWADRVREAAAQRR
notes: also called WT HVS-ORF57^103–120; source: synthetic peptide (Peptide Protein Research Ltd)
B10: VZV ORF4^108–119 (peptide)
peptide: TGYARIERGHRR
notes: also called VZV-ORF4^108–119 peptide; source: synthetic peptide (Peptide Protein Research Ltd)
B11: KSHV ORF57^100–110 (peptide)
peptide: NRYGKKIKFGT
notes: also called KSHV-ORF57^100–110 peptide; source: synthetic peptide (Peptide Protein Research Ltd)

Changes are numbered by the printed parent chain. Names and notes keep the numbering of the source.

What all share (conditions): both partners purified
Test [1] addresses B4. The test can be described thus: NMR titration; […]; 30°C; […], pH 6.2.
The target of test [2] is REF^1–155 (recombinant, for NMR) (murine, UniProt Q9JJW6 1-155). Kind of test: NMR titration.
The target of test [3] is B7. The test can be described thus: NMR titration.
Test [4] addresses T1, HVS ORF57^103–120 V112A (Herpesvirus Saimiri, V112A (stands in the printed letters)).
T1 construct: source: synthetic peptide (Peptide Protein Research Ltd)
Kind of test: NMR titration; […]; 30°C; […], pH 6.2.

The target of test [5] is B2. The test can be described thus: NMR titration; […]; 30°C; […], pH 6.2.
Test [6] concerns the target T2, ICP27^103–112 W105A (Herpes simplex virus 1, W105A (stands in the printed letters)).
T2 construct: also called mutant peptide W105A; source: synthetic peptide (Peptide Protein Research Ltd)
The test can be described thus: NMR titration; […]; 30°C; […], pH 6.2.

For test [7], the target named is T3, HVS ORF57^103–120 R111A (Herpesvirus Saimiri, R111A (stands in the printed letters)).
T3 construct: source: synthetic peptide (Peptide Protein Research Ltd)
The test can be described thus: NMR titration; […]; 30°C; […], pH 6.2.

Test [8] has as its target T4, ICP27^103–112 R107A (Herpes simplex virus 1, R107A (stands in the printed letters)).
T4 construct: source: synthetic peptide (Peptide Protein Research Ltd)
Kind of test: NMR titration; […]; 30°C; […], pH 6.2.

The target of test [9] is T5, HVS ORF57^103–120 W108A (Herpesvirus Saimiri, W108A (stands in the printed letters)).
T5 construct: source: synthetic peptide (Peptide Protein Research Ltd)
Kind of test: NMR titration; […]; 30°C; […], pH 6.2.

In test [10] the target is T6, ICP27^103–112 L108A (Herpes simplex virus 1, L108A (stands in the printed letters)).
T6 construct: source: synthetic peptide (Peptide Protein Research Ltd)
The test can be described thus: NMR titration; […]; 30°C; […], pH 6.2.

The term Kd denotes the equilibrium constant for the complex coming apart. B1: the Kd in test [1] stood at 25 ± 7 µM.

Take B2: the binding result in test [2] was “binds”.

For the molecule B3, in [1], the Kd stood at 99 ± 30 µM.

Turning to B4, in test [3], the binding result is recorded as “binds”. Also, the Kd in test [4] is 156 ± 32 µM; in [5] it was 78 ± 12 µM; in test [6], 550 ± 210 µM; in test [7], 254 ± 50 µM; in test [8], more than 10000 µM; in test [9], more than 7500 µM. In test [10], the equilibrium dissociation constant (Kd) is more than 5000 µM.

Take B5: the Kd in test [1] is 28 ± 8.7 µM.

As for B6, the Kd in test [1] amounted to 17 ± 7.9 µM.

On to B7, for which, in test [2], the binding result is reported as “binds”.

Turning to B8, in test [1], the Kd was more than 1000 µM.

As to B9, the Kd in [1] is 45 ± 15 µM.

As for B10, the Kd in test [1] is more than 1000 µM.

For B11, in test [1], the Kd is more than 100000 µM.

The values are drawn from article PMC3017119, “Structural Basis for the Recognition of Cellular mRNA Export Factor REF by Herpes Viral Proteins HSV-1 ICP27 and HVS ORF57” (PLoS Pathogens, 2011).
